B1: Fab 11G1 (Fab, V domains shown)
VH: QVQLQQSGAELVRPGVSVKISCKGSGYIFTDYVMHWVKQSHSKSLEWIGVISTYYGDGSYNQKFKGKATMTVDKSSSTAYMELARLTSEDSAIYYCVRGENYYGVSGTMDYWGQGTSVTVSS
VL: DIVMSQSPSSLAVSVGEKVTMSCKSSQSLLYSNNQKNYLAWYQQKPGQSPQLLIYWASTRESGVPDRFTGSESGTDFTLTISSVKAEDLAVFYCQQYYNYPWTFGGGTKLEIK
B2: Fab 15C5 (Fab, V domains shown)
VH: QVQLQQSGTELAKPGASVKMSCKASGYTFTNYWMHWFKQRPGQGLEWIGYVNPNTDYTDYNHKFKDKATLTADKSSSTAYMQLSSLTSEDSAVYFCARGTFGNYASFAYWGQGTLV
VL: DIQMIQSPSSMFASLGDRVSLSCRASQDIRGNLDWYQQKPGGTIKLLIYSTSNLNSGVPSRFSGSGSGSDYSLTISSLESEDFADYYCLQRNAYPLTFGGGTKLEIK
B3: monoclonal antibody 15C5 (antibody, V domains shown)
VH: B2 VH
VL: B2 VL

What was measured:
[1] = target: EV-D68 A-particle (strain STL-2014-12) (Enterovirus D68, STL-2014-12 (KM881710), strain); assay: cryo-EM structure
[2] = target: T1, EV-D68 capsid protein VP1 (strain STL-2014-12) (Enterovirus D68, STL-2014-12 (KM881710), strain); assay: cryo-EM structure
T1 chain: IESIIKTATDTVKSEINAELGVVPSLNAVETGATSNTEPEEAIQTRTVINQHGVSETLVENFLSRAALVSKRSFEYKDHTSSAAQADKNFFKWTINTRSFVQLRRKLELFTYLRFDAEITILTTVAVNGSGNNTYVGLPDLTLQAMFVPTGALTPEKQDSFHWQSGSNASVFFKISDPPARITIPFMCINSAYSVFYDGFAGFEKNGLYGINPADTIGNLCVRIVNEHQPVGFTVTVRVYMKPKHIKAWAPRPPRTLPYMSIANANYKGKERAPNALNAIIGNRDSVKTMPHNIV

[3] = target: T2, EV-D68 procapsid (strain STL-2014-12) (Enterovirus D68, STL-2014-12 (KM881710), UniProt A0A097F8Q2;PDB, strain); assay: cryoEM with 2D classification
[4] = target: T3, EV-D68 capsid protein VP3 (strain STL-2014-12) (Enterovirus D68, STL-2014-12 (KM881710), strain); assay: cryo-EM structure
T3 chain: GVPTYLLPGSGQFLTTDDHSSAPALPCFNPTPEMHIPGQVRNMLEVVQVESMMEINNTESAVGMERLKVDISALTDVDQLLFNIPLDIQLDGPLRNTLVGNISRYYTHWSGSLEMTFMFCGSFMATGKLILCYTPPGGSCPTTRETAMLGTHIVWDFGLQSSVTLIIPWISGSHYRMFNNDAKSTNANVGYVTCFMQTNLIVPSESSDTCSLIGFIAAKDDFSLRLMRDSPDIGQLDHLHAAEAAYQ

[5] = target: T4, EV-D68 capsid protein VP2 (strain STL-2014-12) (Enterovirus D68, STL-2014-12 (KM881710), strain); assay: cryo-EM structure
T4 chain: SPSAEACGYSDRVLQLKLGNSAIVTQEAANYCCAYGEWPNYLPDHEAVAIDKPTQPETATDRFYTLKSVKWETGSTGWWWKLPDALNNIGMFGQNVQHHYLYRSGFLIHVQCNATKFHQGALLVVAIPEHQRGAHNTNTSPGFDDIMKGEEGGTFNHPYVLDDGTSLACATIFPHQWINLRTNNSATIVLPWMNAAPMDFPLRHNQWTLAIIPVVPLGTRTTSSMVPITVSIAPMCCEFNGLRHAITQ

[6] = target: T2, EV-D68 procapsid (strain STL-2014-12); assay: ELISA

| Binder | stoichiometry N [1] [copies per particle] | binding result [2] | binding result [3] | binding result [4] | binding result [5] | binding result [6] |
| --- | --- | --- | --- | --- | --- | --- |
| B1 | 60 | binds | – | – | – | – |
| B2 | 60 | – | binds | binds | binds | – |
| B3 | – | – | – | – | – | binds |

— paper PMC6727974 (Nature microbiology, 2018)
